Data as given in the RNAGym collection of RNA variant scans (doi:10.7554/elife.80360).

B1: HDV Ribozyme (parent)
chain: GGCCGGCAUGGUCCCAGCCUCCUCGCUGGCGCCGGCUGGGCAACAUUCCGAGGGGACCGUCCCCUCGGUAAUGGCGAAUGGGACCCA

Variants of: B1
Experiment: self-cleavage, relative activity (ratio to wild type); higher = more cleavage; co-transcriptional

First: C58G A71C
Second: U60C A87G
The self-cleavage of the first is lower: 0.802 for the first, 1.03 for the second.

First: U60C A87U
Second: G59U G76A
The self-cleavage of the first is lower: 0.921 for the first, 0.925 for the second.

First: C57A G67U
Second: U60C C62A
The self-cleavage of the first is higher: 1.06 for the first, 1.01 for the second.

First: A56U G68C
Second: C57U U72C
The self-cleavage of the first is higher: 0.872 for the first, 0.566 for the second.

Compared with C57U U72A, U60G C61A is higher in self-cleavage: 0.657 for the first, 1.11 for the second.

First: U60G C61U
Second: C57A C85U
The self-cleavage of the first is higher: 1.06 for the first, 1.05 for the second.

Compared with U60G G74C, U60G G74A is lower in self-cleavage: 0.443 for the first, 0.227 for the second.

Going from G59C G76U to C57U G73C, the self-cleavage falls from 0.891 to 0.748.

First: C57U G73U
Second: U60C A78G
The self-cleavage of the first is lower: 0.338 for the first, 0.935 for the second.

First: C58U A77C
Second: C57A U69G
The self-cleavage of the first is lower: 0.489 for the first, 0.675 for the second.

First: C58G G81A
Second: U60A G73U
The self-cleavage of the first is lower: 0.243 for the first, 0.475 for the second.

Compared with A56G G76U, C61A A77C is lower in self-cleavage: 1.22 for the first, 0.527 for the second.

First: U60C C63G
Second: C61A G81C
The self-cleavage of the first is higher: 1.09 for the first, 0.287 for the second.

Compared with C61A U65C, C58A G74A is lower in self-cleavage: 0.909 for the first, 0.426 for the second.

C58A G74U and C58G C84G are the same in self-cleavage: 0.554 for the first, 0.554 for the second.

Compared with C58G C84A, C61G G76A is higher in self-cleavage: 0.817 for the first, 0.906 for the second.

Going from U60G A83C to G59A G80A, the self-cleavage falls from 0.612 to 0.305.

Going from G59A G80U to G59C C63A, the self-cleavage rises from 0.179 to 1.17.

Compared with U60A C75U, U60A C75A is lower in self-cleavage: 0.253 for the first, 0.0811 for the second.

Going from U60A G80C to G59A U60A, the self-cleavage rises from 0.0354 to 0.979.

First: U60C G67C
Second: G59A A77C
The self-cleavage of the first is higher: 0.554 for the first, 0.475 for the second.

Compared with U60A G82A, C58A C85U is higher in self-cleavage: 0.373 for the first, 0.869 for the second.

First: G59U C61G
Second: G59U C61A
The self-cleavage of the first is higher: 1.2 for the first, 0.968 for the second.

Compared with U60C U69C, U60C U69A is lower in self-cleavage: 1.2 for the first, 0.802 for the second.

Compared with C57G G81C, U60A C86A is higher in self-cleavage: 0.177 for the first, 0.577 for the second.

Compared with C61G A71U, C61G A71G is lower in self-cleavage: 0.997 for the first, 0.808 for the second.

Going from A56U C85U to G59A G73C, the self-cleavage falls from 1.12 to 0.394.

Compared with G59A G73A, G59C U60A is higher in self-cleavage: 0.665 for the first, 1.09 for the second.

Going from U60A A71U to U60A A71G, the self-cleavage rises from 1.03 to 1.12.

Going from C58G G74U to C57U G67C, the self-cleavage rises from 0.511 to 1.11.

Going from G59C C62A to G59U A71U, the self-cleavage falls from 0.87 to 0.862.

Going from G59C C64U to C57G A87U, the self-cleavage falls from 1.14 to 0.861.

First: G59U C63A
Second: A56U G59U
The self-cleavage of the first is lower: 0.935 for the first, 1.08 for the second.

First: U60G G76C
Second: C57A G76C
The self-cleavage of the first is higher: 1.09 for the first, 1.05 for the second.

Compared with C57A G76A, G59C A87U is lower in self-cleavage: 1.18 for the first, 0.981 for the second.

Going from C58U U69A to C58G G76U, the self-cleavage rises from 0.89 to 1.11.

Compared with A56U C62G, C58G C63A is higher in self-cleavage: 0.601 for the first, 0.813 for the second.

First: U60A C61G
Second: C58G U65A
The self-cleavage of the first is higher: 1.19 for the first, 0.944 for the second.

Going from C57U C64G to C57U C64A, the self-cleavage falls from 0.946 to 0.901.

First: U60G C64U
Second: U60G C64G
The self-cleavage of the first is lower: 0.897 for the first, 0.919 for the second.

First: C58A C61G
Second: C58A C61U
The self-cleavage of the first is higher: 1.03 for the first, 0.972 for the second.

Going from C58A G80U to U60A G76C, the self-cleavage rises from 0.21 to 0.973.

Compared with U60A G76U, C57G G82A is lower in self-cleavage: 1.01 for the first, 0.302 for the second.

Going from A56U A78U to A56U A78C, the self-cleavage rises from 0.0573 to 0.272.

First: C58U A71C
Second: C58U A71G
The self-cleavage of the first is lower: 0.85 for the first, 1.08 for the second.

Going from C58A A71G to C58A C64G, the self-cleavage rises from 0.897 to 1.06.

Going from C58A C64U to U60C C61U, the self-cleavage falls from 1.15 to 0.718.

Compared with C61G G82U, U60G C86G is higher in self-cleavage: 0.271 for the first, 1.14 for the second.

Compared with G59C G73A, C57U C75A is lower in self-cleavage: 0.779 for the first, 0.095 for the second.

Compared with C57U C75G, C57A C86G is higher in self-cleavage: 0.0369 for the first, 0.89 for the second.

Compared with C61G A87C, C57A A71G is lower in self-cleavage: 0.983 for the first, 0.98 for the second.

Compared with C61A C62U, G59C C66A is lower in self-cleavage: 1.01 for the first, 0.914 for the second.

Going from A56G G81U to C61G G81C, the self-cleavage falls from 0.332 to 0.262.

Going from C61G G81A to C58U C64U, the self-cleavage rises from 0.219 to 0.987.

Compared with A56U G67C, A56G U79G is lower in self-cleavage: 0.904 for the first, 0.65 for the second.

Compared with G59C G81A, G59A C84U is higher in self-cleavage: 0.69 for the first, 0.73 for the second.

First: C57A C62G
Second: C57A C62U
The self-cleavage of the first is lower: 0.85 for the first, 1.06 for the second.

Compared with C58G G82U, U60A C64G is higher in self-cleavage: 0.534 for the first, 0.954 for the second.

First: U60A C64A
Second: C57G C66U
The self-cleavage of the first is higher: 0.878 for the first, 0.848 for the second.

First: C57G C66A
Second: G59U G81U
The self-cleavage of the first is higher: 0.923 for the first, 0.433 for the second.

First: C61A A71U
Second: C61A A71G
The self-cleavage of the first is lower: 0.784 for the first, 1.11 for the second.

First: A56U U60C
Second: U60G U69G
The self-cleavage of the first is higher: 1.13 for the first, 0.755 for the second.

Going from G59A C61A to U60G G73A, the self-cleavage falls from 1.02 to 0.591.

Going from C58G G67U to C58G G67C, the self-cleavage falls from 0.892 to 0.739.

Compared with A56G G73A, C57A G74C is lower in self-cleavage: 0.749 for the first, 0.108 for the second.

Compared with C57U C61A, U60A G67U is lower in self-cleavage: 1.32 for the first, 0.818 for the second.

First: U60A G67C
Second: U60A G67A
The self-cleavage of the first is higher: 1.03 for the first, 0.95 for the second.

Compared with C58G C64A, C57G A83G is higher in self-cleavage: 0.855 for the first, 0.917 for the second.

Going from G59U A87G to G59C A71U, the self-cleavage rises from 0.993 to 1.06.

Compared with U60C A70U, C57A C64U is lower in self-cleavage: 1.15 for the first, 1 for the second.

Going from A56G U65G to A56G U65A, the self-cleavage falls from 0.957 to 0.867.

Going from U60C C66G to U60A, the self-cleavage falls from 1.02 to 1.

Going from U60G to U60C, the self-cleavage rises from 0.978 to 1.01.

Compared with U60A A77G, U60A A77U is lower in self-cleavage: 1.14 for the first, 0.453 for the second.

First: C61G G68U
Second: G59C G82A
The self-cleavage of the first is higher: 0.964 for the first, 0.32 for the second.

Compared with G59U G68A, G59U G68U is higher in self-cleavage: 0.88 for the first, 1 for the second.

Going from C57A U72A to C57A G73A, the self-cleavage rises from 0.674 to 0.708.

Compared with C57A G73C, C57G G67U is higher in self-cleavage: 0.523 for the first, 0.8 for the second.

Going from C57G G67C to C61G A70C, the self-cleavage rises from 0.923 to 0.944.

First: C58U
Second: C58G
The self-cleavage of the first is higher: 1.04 for the first, 0.964 for the second.

Going from C58A to U60C U65A, the self-cleavage rises from 1.02 to 1.27.

First: C58G C85U
Second: C58G C85G
The self-cleavage of the first is higher: 0.956 for the first, 0.95 for the second.

Compared with A56G G80C, A56G G80A is higher in self-cleavage: 0.259 for the first, 0.32 for the second.

For C57G C58U, the self-cleavage was 1.07.
